The supplement of paper PMC9732359
± gives the uncertainty stated by the source.

Test: protein stability index of a GFP-peptide fusion (yeast GPS) (PSI 1-4); higher = more stable; sorted into four equal gates, so the index is relative within each strain
In short: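 Sequencing reads from sorted gates were used to score each peptide. The library consisted of tiled 17-residue yeast protein peptides fused downstream of GFP on a Cherry-expressing plasmid, pooled and carried in yeast. Mid-log cultures in leucine-free medium were split into four equal gates by GFP/Cherry ratio, and each gate's plasmids were PCR-amplified and Illumina-sequenced. The protein stability index adds up, over all gates, the read frequency multiplied by the gate number.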

| Sequence | protein stability index (doa10∆) | protein stability index (pdr5∆) | protein stability index (san1∆) | protein stability index (ubr1∆) |
| --- | --- | --- | --- | --- |
| AQSHQRFNAKVSMVKRA [CDC53] | 1.34 ± 0.045 | 2.09 ± 0.061 | 1.56 ± 0.16 | 1.64 ± 0.031 |
| DNDGFSFLMRQFTRFFL [ECM29] | 1.63 ± 0.047 | 2.19 ± 0.059 | 1.87 ± 0.075 | 2.43 ± 0.047 |
| FVIPALPAAVSKSLQES [RPC82] | 1.8 ± 0.1 | 1.69 ± 0.14 | 2.58 ± 0.085 | 2.04 ± 0.12 |
| FTDENTIVLSLNVKCTR [RPC40] | 3.44 ± 0.14 | 3.61 ± 0.091 | 2.96 ± 0.17 | 3.46 ± 0.091 |
| NTLIPESSLTISLYFND [ECM29] | 1.92 ± 0.046 | 2.19 ± 0.052 | 1.99 ± 0.061 | 2.42 ± 0.043 |
| TEKKFTKEQYAAESKKY [RPL5] | 3.2 ± 0.16 | 3.07 ± 0.14 | 2.98 ± 0.075 | 3.02 ± 0.11 |
| ARILARSERKRTKISRG [ITC1] | 2.56 ± 0.062 | 3.1 ± 0.074 | 3.07 ± 0.078 | 2.06 ± 0.046 |
| DVNIIGKDRIAINVFPE [RPO31] | 2.75 ± 0.12 | 3.05 ± 0.12 | 2.88 ± 0.098 | 3.36 ± 0.086 |
| SRKQKIAKTFTVDVSSP [RPL22A] | 2.81 ± 0.08 | 3.1 ± 0.077 | 2.95 ± 0.069 | 2.68 ± 0.05 |
| TLQTISFLGYLRYVKQI [ISW2] | 2.24 ± 0.044 | 1.71 ± 0.049 | 1.5 ± 0.094 | 1.96 ± 0.048 |
| KPENKTDKVSLSQPVSA [SIR4] | 2.81 ± 0.055 | 2.68 ± 0.052 | 2.49 ± 0.063 | 2.14 ± 0.037 |
| RGTLTKNLKHIDVTFTK [RPL9A] | 3.32 ± 0.06 | 3.25 ± 0.067 | 3 ± 0.077 | 2.72 ± 0.065 |
| VEESSEKKQKTESQDVE [DPB4] | 2.8 ± 0.13 | 3.33 ± 0.12 | 3.23 ± 0.13 | 3.03 ± 0.07 |
| YDTQLKVSPEELPLVIT [ARP7] | 2.6 ± 0.047 | 2.77 ± 0.062 | 2.59 ± 0.041 | 2.62 ± 0.042 |
| KISDDELERILKELSNL [RPB4] | 3.16 ± 0.13 | 3.17 ± 0.091 |  | 3 ± 0.1 |
| KDNDKNLKFLKNKDSLV [SRB4] | 3.48 ± 0.094 | 3.21 ± 0.12 | 3.28 ± 0.072 | 3.34 ± 0.068 |
| QALRVLRLKPGRKYTTL [RPL16B] | 2.34 ± 0.055 | 1.98 ± 0.051 | 2.37 ± 0.057 | 2.73 ± 0.048 |
| DESLKDEATVPNTRDAE [SWI3] | 3.16 ± 0.074 | 3.31 ± 0.082 | 3.19 ± 0.13 | 3.14 ± 0.077 |
| TKNIPITHRDLHYDKDY [SSN8] | 2.65 ± 0.043 | 2.87 ± 0.041 | 2.87 ± 0.03 | 2.83 ± 0.039 |
| VQSQVDSSSVSEDSAVF [FAS1] | 3.11 ± 0.072 | 3.33 ± 0.08 | 3.12 ± 0.047 | 3.29 ± 0.049 |
| RQFEVKQLQLAMHNSKA [POP1] | 1.95 ± 0.055 | 2.17 ± 0.059 | 1.77 ± 0.088 | 1.61 ± 0.038 |
| TKDKAKKIREIYRYDEM [BRR2] | 2.58 ± 0.14 | 2.71 ± 0.1 | 2.46 ± 0.14 | 2.89 ± 0.059 |
| NNTNNANSSITPAFGSN [YJL041W/NSP1] | 3.06 ± 0.11 | 3.06 ± 0.11 | 2.86 ± 0.11 | 3.06 ± 0.12 |
| RIRKLTGQNFLTSNISS [REC8] | 1.6 ± 0.056 | 1.79 ± 0.05 | 1.57 ± 0.093 | 1.53 ± 0.053 |
| FLWPFKLSNPSGGWGVP [RPL7A] | 3.16 ± 0.077 | 2.85 ± 0.075 | 3.16 ± 0.1 | 3.36 ± 0.14 |
| KKNNLEFGTYGKYVIAG [RPN14] | 2.51 ± 0.088 | 2.09 ± 0.069 | 1.79 ± 0.14 | 2.1 ± 0.065 |
| DLSLNIHPIPSVTVSQG [YMR129W/POM152] | 1.98 ± 0.055 | 2.43 ± 0.057 | 1.98 ± 0.074 | 2.17 ± 0.039 |

| Sequence | protein stability index (doa10∆) | protein stability index (pdr5∆) | protein stability index (san1∆) | protein stability index (ubr1∆) |
| --- | --- | --- | --- | --- |
| KTKFQYKFLDQNSDAST [YIL149C/MLP2] | 3.08 ± 0.1 | 3.01 ± 0.096 | 2.94 ± 0.078 | 3.06 ± 0.08 |
| NKIIPNVGLCITIYDLL [RPC25] | 1.43 ± 0.082 | 1.29 ± 0.068 | 1.29 ± 0.13 | 1.5 ± 0.067 |
| EGKRIAFGFVDRTLPHF [RPO21] | 2.89 ± 0.058 | 2.98 ± 0.054 | 2.95 ± 0.048 | 3.13 ± 0.035 |
| LMSCISVGTDPMPIITF [RPB2] | 2.26 ± 0.086 | 1.71 ± 0.056 | 2.28 ± 0.05 | 2.18 ± 0.054 |
| GIKLALDPNLITLALSS [SRB4] | 2.21 ± 0.052 | 2.91 ± 0.065 | 2.58 ± 0.055 | 2.63 ± 0.04 |
| KTLVYLEKCEAEFKKRK [YCS4] | 3.42 ± 0.28 | 3.69 ± 0.17 |  |  |
| RKNRYVILQSDLEEAYA [RPT3] | 2.41 ± 0.22 | 2.23 ± 0.15 | 2.1 ± 0.17 | 2.11 ± 0.11 |
| ELAGGNASLTIEDEDEP [SMC1] | 3.03 ± 0.08 | 3.09 ± 0.14 | 3 ± 0.059 | 3.16 ± 0.074 |
| VKPHDEGSKSHPFGHAL [RPL27A] | 2.95 ± 0.064 | 2.97 ± 0.053 | 2.88 ± 0.08 | 3.1 ± 0.047 |
| QRRYVIKEKVQFNATIN [ITC1] | 1.47 ± 0.04 | 1.65 ± 0.033 | 1.63 ± 0.069 | 1.68 ± 0.024 |
| STQPSFAWSKPSTGSNL [YGR119C/NUP57] | 2.98 ± 0.054 | 3.04 ± 0.055 | 3.01 ± 0.048 | 2.98 ± 0.038 |
| IGIDEGSDEAYVKDARK [RPC40] | 3.48 ± 0.074 | 3.38 ± 0.076 | 3.19 ± 0.051 | 3.5 ± 0.054 |
| SKQDASPKPYAVKYGLN [RPL8A] | 3.3 ± 0.12 | 3.2 ± 0.096 | 3.23 ± 0.095 | 3.14 ± 0.095 |
| FSRFVDQFIRHVLRGVE [YCG1] | 3.37 ± 0.25 | 1.5 ± 0.1 |  | 1.72 ± 0.16 |
| IDYKLRVLTQDGRVYIG [SMB1] | 2.49 ± 0.09 | 2.71 ± 0.076 | 1.67 ± 0.11 | 2.5 ± 0.048 |
| AVTEATSTNGDSENNEE [RGR1] | 3.13 ± 0.14 | 3.3 ± 0.076 | 3.36 ± 0.068 | 3.08 ± 0.073 |
| HELPRYGITHGLTNWAA [RPL5] | 2.44 ± 0.045 | 2.42 ± 0.035 | 2.47 ± 0.048 | 2.25 ± 0.035 |
| GVPDDKWEQTYKKPTGG [FAS1] | 3.38 ± 0.07 | 3.29 ± 0.1 | 3.2 ± 0.093 | 3.09 ± 0.069 |
| KASLLLHVLVAHKLKKS [FAS2] | 1.38 ± 0.055 | 1.27 ± 0.043 | 1.12 ± 0.088 | 1.25 ± 0.038 |
| LQIKRDVLDDLYRKLQR [CSE2] | 2.94 ± 0.072 | 3.11 ± 0.069 | 3.01 ± 0.085 | 3.35 ± 0.055 |
| LMTSHTKGDTSKATGAP [RTT102] | 3.12 ± 0.068 | 3.34 ± 0.079 | 3.27 ± 0.059 | 3.17 ± 0.06 |
| DKLLDPTTVSYIFCISR [SCL1] | 2.97 ± 0.045 | 3.1 ± 0.06 | 3.181 ± 0.029 | 3.22 ± 0.051 |
| GTSKYLINGHRAPQQSV [SMC2] | 2.13 ± 0.054 | 2.36 ± 0.047 | 2.27 ± 0.076 | 2.22 ± 0.052 |
| WTVLFRKHHKKGITEEV [RPL24A] | 3.08 ± 0.12 | 2.1 ± 0.13 | 1.82 ± 0.15 | 2.64 ± 0.079 |
| AAMVPFIKFKLIQQVPP [CDC53] | 2.12 ± 0.062 | 1.92 ± 0.07 | 2.17 ± 0.1 | 2.07 ± 0.068 |
| TIKVVKRSMDAEQLGHA [RPP1] | 3.18 ± 0.067 | 3.28 ± 0.07 | 3.41 ± 0.042 | 3.38 ± 0.077 |
